Data set [1] has as its target T1, NBD (nonamer binding domain of RAG1) (mouse, UniProt P15919 384-461).
T1 sequence: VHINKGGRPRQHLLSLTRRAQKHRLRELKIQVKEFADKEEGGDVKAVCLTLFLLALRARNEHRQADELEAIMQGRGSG
Nature of the data set: EMSA; 5 mM Ca2+; no significant binding; NBD EMSA: 10 mM Tris-HCl pH 7.5, 33 mM KCl, 5 mM CaCl2, 2 mM DTT, 0.1 mg/ml BSA, 6% glycerol, 15 min 30 C; cRAG EMSA: 22.5 mM MOPS-KOH pH 7.0, 20% DMSO, 2.2 mM. The settings on record: protein: recombinant; tags: N-terminal His6 (pET28a); label: 5' 32P on DR59; 6 nt T/T bubble, blunt ends. A general note: Mobility shift assays separate free from complexed probe on a gel.

The target in data set [2] is T1, NBD (nonamer binding domain of RAG1). Nature of the data set: EMSA; 5 mM Ca2+; printed as 'binding constant'; NBD EMSA: 10 mM Tris-HCl pH 7.5, 33 mM KCl, 5 mM CaCl2, 2 mM DTT, 0.1 mg/ml BSA, 6% glycerol, 15 min 30 C; cRAG EMSA: 22.5 mM MOPS-KOH pH 7.0, 20% DMSO, 2.2 mM. The settings on record: protein: recombinant; tags: N-terminal His6 (pET28a); label: 5' 32P on AKN3; 5' overhang 1 nt at both ends.

B1: T/T bubble with scrambled nonamer (XXXVII, DR59/DR60) (dsDNA)
DNA 1: GACCTGAGGGCGAGCTTTTTTCGAGTAACTTAAGCGGAGGTCCTGCT
DNA 2: AGCAGGACCTCCGCTTAAGTTACTCGTTTTTTGCTCGCCCTCAGGTC
With B1, in data set [1], the binding result is reported as “no binding”.

B2: 23RSS (II, AKN3/AKN4) (dsDNA)
DNA 1: GATCAGCTGACAGTAGCACAGTGGTAGTACTCCACTCTCTGGCTGTACAAAAACCCTGCT
DNA 2: TAGCAGGGTTTTTGTACAGCCAGAGAGTGGAGTACTACCACTGTGCTACTGTCAGCTGAT
As for B2, the Kd (in general, the concentration at which binding is half-saturated) in data set [2] turned out to be 13.9 ± 3.3 µM.

The record behind these values is publication PMC4705477, “Biochemical Characterization of Nonamer Binding Domain of RAG1 Reveals its Thymine Preference with Respect to Length and Position”.
